He/Con_3a data for 21 molecules are collected here from patent US20180155451A1 (published 2018).

First the molecules themselves.
B1: GpH7-A5/GpH7-B3 variant K334_08L/GpL16-k0 (antibody, human IgG1, kappa)
heavy 1: not shown
heavy 2: not shown
light: DIVMTQSPLSLPVTPGEPASISCQASESLVHSNRNTYLHWYLQKPGQSPQLLIYKVSNRFSGVPDRFSGSGSGTDFTLKISRVEAEDVGVYYCSQNTHVPPTFGQGTKVEIERTVAAPSVFIFPPSDEQLKSGTASVVCLLNNFYPREAKVQWKVDNALQSGNSQESVTEQDSKDSTYSLSSTLTLSKADYEKHKVYACEVTHQGLSSPVTKSFNRGEC
notes: heterodimerized IgG1, mutation in one H chain only; also called He Ab
B2: GpH7-A5/GpH7-B3 variant T335_07I/GpL16-k0 (antibody, human IgG1, kappa)
heavy 1: not shown
heavy 2: not shown
light: DIVMTQSPLSLPVTPGEPASISCQASESLVHSNRNTYLHWYLQKPGQSPQLLIYKVSNRFSGVPDRFSGSGSGTDFTLKISRVEAEDVGVYYCSQNTHVPPTFGQGTKVEIERTVAAPSVFIFPPSDEQLKSGTASVVCLLNNFYPREAKVQWKVDNALQSGNSQESVTEQDSKDSTYSLSSTLTLSKADYEKHKVYACEVTHQGLSSPVTKSFNRGEC
notes: as for B1
B3: GpH7-A5/GpH7-B3 variant K334_16H/GpL16-k0 (antibody, human IgG1, kappa)
heavy 1: not shown
heavy 2: not shown
light: DIVMTQSPLSLPVTPGEPASISCQASESLVHSNRNTYLHWYLQKPGQSPQLLIYKVSNRFSGVPDRFSGSGSGTDFTLKISRVEAEDVGVYYCSQNTHVPPTFGQGTKVEIERTVAAPSVFIFPPSDEQLKSGTASVVCLLNNFYPREAKVQWKVDNALQSGNSQESVTEQDSKDSTYSLSSTLTLSKADYEKHKVYACEVTHQGLSSPVTKSFNRGEC
notes: as for B1
B4: GpH7-A5/GpH7-B3 variant Q295_02A/GpL16-k0 (antibody, human IgG1, kappa)
heavy 1: not shown
heavy 2: not shown
light: DIVMTQSPLSLPVTPGEPASISCQASESLVHSNRNTYLHWYLQKPGQSPQLLIYKVSNRFSGVPDRFSGSGSGTDFTLKISRVEAEDVGVYYCSQNTHVPPTFGQGTKVEIERTVAAPSVFIFPPSDEQLKSGTASVVCLLNNFYPREAKVQWKVDNALQSGNSQESVTEQDSKDSTYSLSSTLTLSKADYEKHKVYACEVTHQGLSSPVTKSFNRGEC
notes: as for B1
B5: GpH7-A5/GpH7-B3 variant S337_10E/GpL16-k0 (antibody, human IgG1, kappa)
heavy 1: not shown
heavy 2: not shown
light: DIVMTQSPLSLPVTPGEPASISCQASESLVHSNRNTYLHWYLQKPGQSPQLLIYKVSNRFSGVPDRFSGSGSGTDFTLKISRVEAEDVGVYYCSQNTHVPPTFGQGTKVEIERTVAAPSVFIFPPSDEQLKSGTASVVCLLNNFYPREAKVQWKVDNALQSGNSQESVTEQDSKDSTYSLSSTLTLSKADYEKHKVYACEVTHQGLSSPVTKSFNRGEC
notes: as for B1
B6: GpH7-A5/GpH7-B3 variant K334_09D/GpL16-k0 (antibody, human IgG1, kappa)
heavy 1: not shown
heavy 2: not shown
light: DIVMTQSPLSLPVTPGEPASISCQASESLVHSNRNTYLHWYLQKPGQSPQLLIYKVSNRFSGVPDRFSGSGSGTDFTLKISRVEAEDVGVYYCSQNTHVPPTFGQGTKVEIERTVAAPSVFIFPPSDEQLKSGTASVVCLLNNFYPREAKVQWKVDNALQSGNSQESVTEQDSKDSTYSLSSTLTLSKADYEKHKVYACEVTHQGLSSPVTKSFNRGEC
notes: as for B1
B7: GpH7-A5/GpH7-B3 variant S267_02A/GpL16-k0 (antibody, human IgG1, kappa)
heavy 1: not shown
heavy 2: not shown
light: DIVMTQSPLSLPVTPGEPASISCQASESLVHSNRNTYLHWYLQKPGQSPQLLIYKVSNRFSGVPDRFSGSGSGTDFTLKISRVEAEDVGVYYCSQNTHVPPTFGQGTKVEIERTVAAPSVFIFPPSDEQLKSGTASVVCLLNNFYPREAKVQWKVDNALQSGNSQESVTEQDSKDSTYSLSSTLTLSKADYEKHKVYACEVTHQGLSSPVTKSFNRGEC
notes: as for B1
B8: GpH7-A5/GpH7-B3 variant K334_14T/GpL16-k0 (antibody, human IgG1, kappa)
heavy 1: not shown
heavy 2: not shown
light: DIVMTQSPLSLPVTPGEPASISCQASESLVHSNRNTYLHWYLQKPGQSPQLLIYKVSNRFSGVPDRFSGSGSGTDFTLKISRVEAEDVGVYYCSQNTHVPPTFGQGTKVEIERTVAAPSVFIFPPSDEQLKSGTASVVCLLNNFYPREAKVQWKVDNALQSGNSQESVTEQDSKDSTYSLSSTLTLSKADYEKHKVYACEVTHQGLSSPVTKSFNRGEC
notes: as for B1
B9: GpH7-A5/GpH7-B3 variant K334_13S/GpL16-k0 (antibody, human IgG1, kappa)
heavy 1: not shown
heavy 2: not shown
light: DIVMTQSPLSLPVTPGEPASISCQASESLVHSNRNTYLHWYLQKPGQSPQLLIYKVSNRFSGVPDRFSGSGSGTDFTLKISRVEAEDVGVYYCSQNTHVPPTFGQGTKVEIERTVAAPSVFIFPPSDEQLKSGTASVVCLLNNFYPREAKVQWKVDNALQSGNSQESVTEQDSKDSTYSLSSTLTLSKADYEKHKVYACEVTHQGLSSPVTKSFNRGEC
notes: as for B1
B10: GpH7-A5/GpH7-B3 variant S239_09D/GpL16-k0 (antibody, human IgG1, kappa)
heavy 1: not shown
heavy 2: not shown
light: DIVMTQSPLSLPVTPGEPASISCQASESLVHSNRNTYLHWYLQKPGQSPQLLIYKVSNRFSGVPDRFSGSGSGTDFTLKISRVEAEDVGVYYCSQNTHVPPTFGQGTKVEIERTVAAPSVFIFPPSDEQLKSGTASVVCLLNNFYPREAKVQWKVDNALQSGNSQESVTEQDSKDSTYSLSSTLTLSKADYEKHKVYACEVTHQGLSSPVTKSFNRGEC
notes: as for B1
B11: GpH7-A5/GpH7-B3 variant K334_19Q/GpL16-k0 (antibody, human IgG1, kappa)
heavy 1: not shown
heavy 2: not shown
light: DIVMTQSPLSLPVTPGEPASISCQASESLVHSNRNTYLHWYLQKPGQSPQLLIYKVSNRFSGVPDRFSGSGSGTDFTLKISRVEAEDVGVYYCSQNTHVPPTFGQGTKVEIERTVAAPSVFIFPPSDEQLKSGTASVVCLLNNFYPREAKVQWKVDNALQSGNSQESVTEQDSKDSTYSLSSTLTLSKADYEKHKVYACEVTHQGLSSPVTKSFNRGEC
notes: as for B1
B12: GpH7-A5/GpH7-B3 variant K334_18N/GpL16-k0 (antibody, human IgG1, kappa)
heavy 1: not shown
heavy 2: not shown
light: DIVMTQSPLSLPVTPGEPASISCQASESLVHSNRNTYLHWYLQKPGQSPQLLIYKVSNRFSGVPDRFSGSGSGTDFTLKISRVEAEDVGVYYCSQNTHVPPTFGQGTKVEIERTVAAPSVFIFPPSDEQLKSGTASVVCLLNNFYPREAKVQWKVDNALQSGNSQESVTEQDSKDSTYSLSSTLTLSKADYEKHKVYACEVTHQGLSSPVTKSFNRGEC
notes: as for B1
B13: GpH7-A5/GpH7-B3 variant S337_09D/GpL16-k0 (antibody, human IgG1, kappa)
heavy 1: not shown
heavy 2: not shown
light: DIVMTQSPLSLPVTPGEPASISCQASESLVHSNRNTYLHWYLQKPGQSPQLLIYKVSNRFSGVPDRFSGSGSGTDFTLKISRVEAEDVGVYYCSQNTHVPPTFGQGTKVEIERTVAAPSVFIFPPSDEQLKSGTASVVCLLNNFYPREAKVQWKVDNALQSGNSQESVTEQDSKDSTYSLSSTLTLSKADYEKHKVYACEVTHQGLSSPVTKSFNRGEC
notes: as for B1
B14: GpH7-A5/GpH7-B3 variant Q295_10E/GpL16-k0 (antibody, human IgG1, kappa)
heavy 1: not shown
heavy 2: not shown
light: DIVMTQSPLSLPVTPGEPASISCQASESLVHSNRNTYLHWYLQKPGQSPQLLIYKVSNRFSGVPDRFSGSGSGTDFTLKISRVEAEDVGVYYCSQNTHVPPTFGQGTKVEIERTVAAPSVFIFPPSDEQLKSGTASVVCLLNNFYPREAKVQWKVDNALQSGNSQESVTEQDSKDSTYSLSSTLTLSKADYEKHKVYACEVTHQGLSSPVTKSFNRGEC
notes: as for B1
B15: GpH7-A5/GpH7-B3 variant K334_10E/GpL16-k0 (antibody, human IgG1, kappa)
heavy 1: not shown
heavy 2: not shown
light: DIVMTQSPLSLPVTPGEPASISCQASESLVHSNRNTYLHWYLQKPGQSPQLLIYKVSNRFSGVPDRFSGSGSGTDFTLKISRVEAEDVGVYYCSQNTHVPPTFGQGTKVEIERTVAAPSVFIFPPSDEQLKSGTASVVCLLNNFYPREAKVQWKVDNALQSGNSQESVTEQDSKDSTYSLSSTLTLSKADYEKHKVYACEVTHQGLSSPVTKSFNRGEC
notes: as for B1
B16: GpH7-A5/GpH7-B3 variant T335_10E/GpL16-k0 (antibody, human IgG1, kappa)
heavy 1: not shown
heavy 2: not shown
light: DIVMTQSPLSLPVTPGEPASISCQASESLVHSNRNTYLHWYLQKPGQSPQLLIYKVSNRFSGVPDRFSGSGSGTDFTLKISRVEAEDVGVYYCSQNTHVPPTFGQGTKVEIERTVAAPSVFIFPPSDEQLKSGTASVVCLLNNFYPREAKVQWKVDNALQSGNSQESVTEQDSKDSTYSLSSTLTLSKADYEKHKVYACEVTHQGLSSPVTKSFNRGEC
notes: as for B1
B17: GpH7-A5/GpH7-B3 variant S298_14T/GpL16-k0 (antibody, human IgG1, kappa)
heavy 1: not shown
heavy 2: not shown
light: DIVMTQSPLSLPVTPGEPASISCQASESLVHSNRNTYLHWYLQKPGQSPQLLIYKVSNRFSGVPDRFSGSGSGTDFTLKISRVEAEDVGVYYCSQNTHVPPTFGQGTKVEIERTVAAPSVFIFPPSDEQLKSGTASVVCLLNNFYPREAKVQWKVDNALQSGNSQESVTEQDSKDSTYSLSSTLTLSKADYEKHKVYACEVTHQGLSSPVTKSFNRGEC
notes: as for B1
B18: GpH7-A5/GpH7-B3 variant S337_18N/GpL16-k0 (antibody, human IgG1, kappa)
heavy 1: not shown
heavy 2: not shown
light: DIVMTQSPLSLPVTPGEPASISCQASESLVHSNRNTYLHWYLQKPGQSPQLLIYKVSNRFSGVPDRFSGSGSGTDFTLKISRVEAEDVGVYYCSQNTHVPPTFGQGTKVEIERTVAAPSVFIFPPSDEQLKSGTASVVCLLNNFYPREAKVQWKVDNALQSGNSQESVTEQDSKDSTYSLSSTLTLSKADYEKHKVYACEVTHQGLSSPVTKSFNRGEC
notes: as for B1
B19: GpH7-A5/GpH7-B3 variant Q295_14T/GpL16-k0 (antibody, human IgG1, kappa)
heavy 1: not shown
heavy 2: not shown
light: DIVMTQSPLSLPVTPGEPASISCQASESLVHSNRNTYLHWYLQKPGQSPQLLIYKVSNRFSGVPDRFSGSGSGTDFTLKISRVEAEDVGVYYCSQNTHVPPTFGQGTKVEIERTVAAPSVFIFPPSDEQLKSGTASVVCLLNNFYPREAKVQWKVDNALQSGNSQESVTEQDSKDSTYSLSSTLTLSKADYEKHKVYACEVTHQGLSSPVTKSFNRGEC
notes: as for B1
B20: GpH7-A5/GpH7-B3 variant S267_09D/GpL16-k0 (antibody, human IgG1, kappa)
heavy 1: not shown
heavy 2: not shown
light: DIVMTQSPLSLPVTPGEPASISCQASESLVHSNRNTYLHWYLQKPGQSPQLLIYKVSNRFSGVPDRFSGSGSGTDFTLKISRVEAEDVGVYYCSQNTHVPPTFGQGTKVEIERTVAAPSVFIFPPSDEQLKSGTASVVCLLNNFYPREAKVQWKVDNALQSGNSQESVTEQDSKDSTYSLSSTLTLSKADYEKHKVYACEVTHQGLSSPVTKSFNRGEC
notes: as for B1
B21: GpH7-A5/GpH7-B3 variant K334_15Y/GpL16-k0 (antibody, human IgG1, kappa)
heavy 1: not shown
heavy 2: not shown
light: DIVMTQSPLSLPVTPGEPASISCQASESLVHSNRNTYLHWYLQKPGQSPQLLIYKVSNRFSGVPDRFSGSGSGTDFTLKISRVEAEDVGVYYCSQNTHVPPTFGQGTKVEIERTVAAPSVFIFPPSDEQLKSGTASVVCLLNNFYPREAKVQWKVDNALQSGNSQESVTEQDSKDSTYSLSSTLTLSKADYEKHKVYACEVTHQGLSSPVTKSFNRGEC
notes: as for B1

The target in this test is T1, FcγRIIIa extracellular domain with C-terminal His tag (human, UniProt P08637 17-208).
T1 construct: extracellular domain; also called FcgRIIIa; 3a
T1 sequence (P08637 17-208): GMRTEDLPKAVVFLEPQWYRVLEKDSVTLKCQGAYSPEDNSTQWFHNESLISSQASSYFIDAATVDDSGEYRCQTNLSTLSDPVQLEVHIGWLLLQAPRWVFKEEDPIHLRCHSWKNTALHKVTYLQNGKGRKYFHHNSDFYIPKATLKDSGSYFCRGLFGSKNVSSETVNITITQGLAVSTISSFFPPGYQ
Nature of the test: SPR, relative to GpH7-A5/GpH7-B3/GpL16-k0. (In general: Surface plasmon resonance follows binding to a sensor surface in real time, without labels.)
For the molecule B1, the He/Con_3a was 143 % of control (=100).
Regarding B2, the He/Con_3a was 107 % of control (=100).
As to B3, the He/Con_3a is 134 % of control (=100).
Regarding B4, the He/Con_3a is 106 % of control (=100).
As to B5, the He/Con_3a is 105 % of control (=100).
For B6, the He/Con_3a is 160 % of control (=100).
Regarding B7, the He/Con_3a was 150 % of control (=100).
Turning to B8, the He/Con_3a was 141 % of control (=100).
As for B9, the figure is 145 % of control (=100); as for B10, 166 % of control (=100); as for B11, 136 % of control (=100).
Take B12: the He/Con_3a is 136 % of control (=100).
As for B13, the figure is 110 % of control (=100).
In the case of B14, the He/Con_3a was 100 % of control (=100).
Take B15: the He/Con_3a was 181 % of control (=100).
As for B16, the He/Con_3a was 107 % of control (=100).
Regarding B17, the He/Con_3a is 113 % of control (=100).
Take B18: the He/Con_3a was 104 % of control (=100).
Take B19: the He/Con_3a is 115 % of control (=100).
Consider B20, for which the He/Con_3a is 181 % of control (=100).
Turning to B21, the He/Con_3a was 141 % of control (=100).
